Reference: patent US20230365709A1

Molecular target: recombinant human CD16A (48R/158F) expressed on the surface of CHO cells (human) (UniProt P08637)
Assay: flow cytometry, CHO-huCD16A cells, apparent KD; SD 62.5

- Kd: 528 nM
B1: 2scDb-AFc-3 (protein)
chain 1: EVQLQQSGPELVKPGASVKMSCKASGYTFTDYVINWGKQRSGQGLEWIGEIYPGSGTNYYNEKFKAKATLTADKSSNIAYMQLSSLTSEDSAVYFCARRGRYGLYAMDYWGQGTSVTVSSGGSGGSGGSDIVMTQSPATLSLSPGERATLSCRSSKSLQNVNGNTYLYWFQQKPGQSPQLLIYRMSNLNSGVPDRFSGSGSGTEFTLTISSLEPEDFAVYYCMQHLEYPITFGAGTKLEIKGGSGGSGGSGGSGGSGGSGGSEVQLVESGGGLVKPGGSLKLSCAASGYTFTSYVMHWVRQAPGKGLEWIGYINPYNDGTKYNEKFQGRVTISSDKSISTAYMELSSLRSEDTAMYYCARGTYYYGTRVFDYWGQGTLVTVSSGGSGGSGGSDIQMTQTTSSLSASLGDRVTISCRASQDISNYLNWYQQKPDGTVKLLIYYTSRLHSGVPSRFSGSGSGTDYSLTINNLEQEDIATYFCQQGNTRPWTFGGGTKLEIKDKTHTCPPCPAPEFEGGPSVFLFPPKPKDTLMISRTPEVTCVVVAVSHEDPEVKFNWYVDGVEVHNAKTKPREEQYGSTYRVVSVLTVLHQDWLNGKEYKCKVSNKALPAPIEKTISKAKGQPREPQVYTLPPSREEMTKNQVSLWCLVKGFYPSDIAVEWESNGQPENNYKTTPPVLDSDGSFFLYSKLTVDKSRWQQGNVFSCSVMHEALHNHYTQKSLSLSPG
chain 2: EVQLVQSGAEVKKPGASVKVSCKASGYTFTNYYMQWVRQAPGQCLEWMGIINPSGGVTSYAQKFQGRVTMTRDTSTSTVYMELSSLRSEDTAVYYCARGSAYYYDFADYWGQGTLVTVSSGGSGGSGGSDIVMTQSPATLSLSPGERATLSCRSSKSLQNVNGNTYLYWFQQKPGQSPQLLIYRMSNLNSGVPDRFSGSGSGTEFTLTISSLEPEDFAVYYCMQHLEYPITFGAGTKLEIKGGSGGSGGSGGSGGSGGSGGSEVQLVESGGGLVKPGGSLKLSCAASGYTFTSYVMHWVRQAPGKGLEWIGYINPYNDGTKYNEKFQGRVTISSDKSISTAYMELSSLRSEDTAMYYCARGTYYYGTRVFDYWGQGTLVTVSSGGSGGSGGSSYELTQPLSVSVALGQTARITCGGNNIGSKSVHWYQQKPGQAPVLVIYQDKKRPSGIPERFSGSNSGNTATLTISRAQAGDEADYYCQVWDDYIVLFGCGTKLTVLDKTHTCPPCPAPEFEGGPSVFLFPPKPKDTLMISRTPEVTCVVVAVSHEDPEVKFNWYVDGVEVHNAKTKPREEQYGSTYRVVSVLTVLHQDWLNGKEYKCKVSNKALPAPIEKTISKAKGQPREPQVYTLPPSREEMTKNQVSLSCAVKGFYPSDIAVEWESNGQPENNYKTTPPVLDSDGSFFLVSKLTVDKSRWQQGNVFSCSVMHEALHNHYTQKSLSLSPG
